Experimental data from US20250130225A1, “SUBSTRATES FOR IMAGING GLUCOCEREBROSIDASE ACTIVITY” (SIMON FRASER UNIVERSITY, priority 2021, published 2025).

Legend:
Assay in all cases: In-vitro kinetic assay with purified recombinant GCase
Format in all cases: biochemical
Conditions in all cases: other: 30° C., citrate-phosphate buffer 150 mM, pH 5.4, 0.25% taurodeoxycholate, GCase 2.5 nM
[1] = substrate: COc1cc(/N=N/c2ccc(C)cc2[N+](=O)[O-])c(C)cc1/N=N/c1ccc(N(C)CCCC(=O)NCCCO[C@@H]2O[C@H](COCc3cn(CCCNC(=O)[C@H](CCCCN(C)C)NC(=O)CCC4=[N+]5C(=Cc6c(C)cc(C)n6[B-]5(F)F)C=C4)nn3)[C@@H](O)[C@H](O)[C@H]2O)cc1
Description: (§1) In-vitro kinetic assay for substrate 1. Continuous assays were performed at 30° C. in citrate-phosphate buffer (150 mM; pH 5.4) containing 0.25% taurodeoxycholate. The concentrations of substrate 1 used in assays were 0.39, 0.78, 1.56, 3.13 6.25, 12.5, 25 and 50 μM. Reactions were initiated by the addition of purified recombinant GCase (2.5 nM, R&D Systems) and the reaction was monitored continuously over 1200 seconds to determine the initial rate of change of fluorescence. Standard curves were constructed using BODIPY® Fl-acid using the same buffer conditions. […] Assays were carried out in triplicate.
as §1, with “Comparative In-vitro” for “In-vitro”, “substrate 3 and 9b.” for “substrate 1.”, “of substrates 3 and 9b” for “of substrate 1”, “were 0.156, 0.313, 0.625, 1.25, 2.5, 5, 10,” for “were 0.39, 0.78, 1.56, 3.13 6.25, 12.5, 25”, “and 20” for “and 50”, “using TAMRA and BODIPY-576” for “using BODIPY® Fl-acid”

[2] = substrate: COc1cc(/N=N/c2ccc([N+](=O)[O-])cc2)c(OC)cc1/N=N/c1ccc(N(C)CCCC(=O)NCCCO[C@@H]2O[C@H](COCc3cn(CCNC(=O)CCC4=[N+]5C(=Cc6ccc(-c7ccc[nH]7)n6[B-]5(F)F)C=C4)nn3)[C@@H](O)[C@H](O)[C@H]2O)cc1
Description: as §1
as §1, with “Comparative In-vitro” for “In-vitro”, “substrate 3 and 9b.” for “substrate 1.”, “of substrates 3 and 9b” for “of substrate 1”, “were 0.156, 0.313, 0.625, 1.25, 2.5, 5, 10,” for “were 0.39, 0.78, 1.56, 3.13 6.25, 12.5, 25”, “and 20” for “and 50”, “using TAMRA and BODIPY-576” for “using BODIPY® Fl-acid”

[3] = substrate: COc1cc(/N=N/c2ccc([N+](=O)[O-])cc2)c(OC)cc1/N=N/c1ccc(N(C)CCCC(=O)NCCc2ccc(O[C@@H]3O[C@H](COCCCCn4cc(CNC(=O)[C@H](CCCCN(C)C)NC(=O)c5ccc(-c6c7ccc(=[N+](C)C)cc-7oc7cc(N(C)C)ccc67)c(C(=O)O)c5)nn4)[C@@H](O)[C@H](O)[C@H]3O)cc2)cc1
Description: as §1
as §1, with “Comparative In-vitro” for “In-vitro”, “substrate 3 and 9b.” for “substrate 1.”, “of substrates 3 and 9b” for “of substrate 1”, “were 0.156, 0.313, 0.625, 1.25, 2.5, 5, 10,” for “were 0.39, 0.78, 1.56, 3.13 6.25, 12.5, 25”, “and 20” for “and 50”, “using TAMRA and BODIPY-576” for “using BODIPY® Fl-acid”

B1: purified recombinant GCase (Homo sapiens) (protein)
chain: ARPCIPKSFGYSSVVCVCNATYCDSFDPPTFPALGTFSRYESTRSGRRMELSMGPIQANHTGTGLLLTLQPEQKFQKVKGFGGAMTDAAALNILALSPPAQNLLLKSYFSEEGIGYNIIRVPMASCDFSIRTYTYADTPDDFQLHNFSLPEEDTKLKIPLIHRALQLAQRPVSLLASPWTSPTWLKTNGAVNGKGSLKGQPGDIYHQTWARYFVKFLDAYAEHKLQFWAVTAENEPSAGLLSGYPFQCLGFTPEHQRDFIARDLGPTLANSTHHNVRLLMLDDQRLLLPHWAKVVLTDPEAAKYVHGIAVHWYLDFLAPAKATLGETHRLFPNTMLFASEACVGSKFWEQSVRLGSWDRGMQYSHSIITNLLYHVVGWTDWNLALNPEGGPNWVRNFVDSPIIVDITKDTFYKQPMFYHLGHFSKFIPEGSQRVGLVASQKNDLDAVALMHPDGSAVVVVLNRSSKDVPLTIKDPAVGFLETISPGYSIHTYLWRRQ
notes: purchased R&D Systems
[1]
  kcat/Km: 1300 ± 33 M⁻¹ s⁻¹
[2]
  kcat/Km: 4350 M⁻¹ s⁻¹
[3]
  kcat/Km: 22670 M⁻¹ s⁻¹
